Results published in patent EP4806467A2.
Values belong to the molecule of their own block, whether it stands above or below them.

Columns and labels:
[1] = target: ADAM9 on human tumour cells (LS174T, HepG2, Calu-3) (human) (UniProt Q13443); assay: flow cytometry on HepG2 cells, negative control, 250 nM
[2] = target: ADAM9 on human tumour cells (LS174T, HepG2, Calu-3) (human) (UniProt Q13443); assay: flow cytometry on LS174T cells, negative control, 1000 nM
[3] = target: ADAM9 on human tumour cells (LS174T, HepG2, Calu-3) (human) (UniProt Q13443); assay: flow cytometry on HepG2 cells, negative control, 62.5 nM
[4] = target: ADAM9 on human tumour cells (LS174T, HepG2, Calu-3) (human) (UniProt Q13443); assay: flow cytometry on HepG2 cells, negative control, 0.061035 nM
[5] = target: ADAM9 on human tumour cells (LS174T, HepG2, Calu-3) (human) (UniProt Q13443); assay: flow cytometry on HepG2 cells, negative control, 0.000238 nM
[6] = target: ADAM9 on human tumour cells (LS174T, HepG2, Calu-3) (human) (UniProt Q13443); assay: flow cytometry on LS174T cells, negative control, 62.5 nM
[7] = target: ADAM9 on human tumour cells (LS174T, HepG2, Calu-3) (human) (UniProt Q13443); assay: flow cytometry on HepG2 cells, negative control, 1000 nM
[8] = target: ADAM9 on human tumour cells (LS174T, HepG2, Calu-3) (human) (UniProt Q13443); assay: flow cytometry on LS174T cells, negative control, 0.000954 nM
[9] = target: ADAM9 on human tumour cells (LS174T, HepG2, Calu-3) (human) (UniProt Q13443); assay: flow cytometry on HepG2 cells, negative control, 15.625 nM
[10] = target: ADAM9 on human tumour cells (LS174T, HepG2, Calu-3) (human) (UniProt Q13443); assay: flow cytometry on LS174T cells, negative control, 0.244141 nM
[11] = target: ADAM9 on human tumour cells (LS174T, HepG2, Calu-3) (human) (UniProt Q13443); assay: flow cytometry on LS174T cells, negative control, 3.906250 nM
[12] = target: ADAM9 on human tumour cells (LS174T, HepG2, Calu-3) (human) (UniProt Q13443); assay: flow cytometry on HepG2 cells, negative control, 3.906250 nM
[13] = target: ADAM9 on human tumour cells (LS174T, HepG2, Calu-3) (human) (UniProt Q13443); assay: flow cytometry on LS174T cells, negative control, 0.003815 nM
[14] = target: ADAM9 on human tumour cells (LS174T, HepG2, Calu-3) (human) (UniProt Q13443); assay: flow cytometry on HepG2 cells, negative control, 0.244141 nM
[15] = target: ADAM9 on human tumour cells (LS174T, HepG2, Calu-3) (human) (UniProt Q13443); assay: flow cytometry on LS174T cells, negative control, 0.015259 nM
[16] = target: ADAM9 on human tumour cells (LS174T, HepG2, Calu-3) (human) (UniProt Q13443); assay: flow cytometry on HepG2 cells, negative control, 0.003815 nM
[17] = target: ADAM9 on human tumour cells (LS174T, HepG2, Calu-3) (human) (UniProt Q13443); assay: flow cytometry on HepG2 cells, negative control, 0.000954 nM
[18] = target: ADAM9 on human tumour cells (LS174T, HepG2, Calu-3) (human) (UniProt Q13443); assay: flow cytometry on LS174T cells, negative control, 0.976563 nM
[19] = target: ADAM9 on human tumour cells (LS174T, HepG2, Calu-3) (human) (UniProt Q13443); assay: flow cytometry on LS174T cells, negative control, 15.625 nM
[20] = target: ADAM9 on human tumour cells (LS174T, HepG2, Calu-3) (human) (UniProt Q13443); assay: flow cytometry on HepG2 cells, negative control, 0.015259 nM
[21] = target: ADAM9 on human tumour cells (LS174T, HepG2, Calu-3) (human) (UniProt Q13443); assay: flow cytometry on LS174T cells, negative control, 0.061035 nM
[22] = target: ADAM9 on human tumour cells (LS174T, HepG2, Calu-3) (human) (UniProt Q13443); assay: flow cytometry on LS174T cells, negative control, 250 nM
[23] = target: ADAM9 on human tumour cells (LS174T, HepG2, Calu-3) (human) (UniProt Q13443); assay: flow cytometry on HepG2 cells, negative control, 0.976563 nM
[24] = target: ADAM9 on human tumour cells (LS174T, HepG2, Calu-3) (human) (UniProt Q13443); assay: flow cytometry on HepG2 cells, 3.906250 nM
[25] = target: ADAM9 on human tumour cells (LS174T, HepG2, Calu-3) (human) (UniProt Q13443); assay: flow cytometry on HepG2 cells, 0.015259 nM
[26] = target: ADAM9 on human tumour cells (LS174T, HepG2, Calu-3) (human) (UniProt Q13443); assay: flow cytometry on HepG2 cells, 0.000238 nM
[27] = target: ADAM9 on human tumour cells (LS174T, HepG2, Calu-3) (human) (UniProt Q13443); assay: flow cytometry on HepG2 cells, 0.000954 nM
[28] = target: ADAM9 on human tumour cells (LS174T, HepG2, Calu-3) (human) (UniProt Q13443); assay: flow cytometry on HepG2 cells, 0.976563 nM
[29] = target: ADAM9 on human tumour cells (LS174T, HepG2, Calu-3) (human) (UniProt Q13443); assay: flow cytometry on HepG2 cells, 0.061035 nM
[30] = target: ADAM9 on human tumour cells (LS174T, HepG2, Calu-3) (human) (UniProt Q13443); assay: flow cytometry on HepG2 cells, 62.5 nM
[31] = target: ADAM9 on human tumour cells (LS174T, HepG2, Calu-3) (human) (UniProt Q13443); assay: flow cytometry on HepG2 cells, 1000 nM
[32] = target: ADAM9 on human tumour cells (LS174T, HepG2, Calu-3) (human) (UniProt Q13443); assay: flow cytometry on HepG2 cells, 250 nM
[33] = target: ADAM9 on human tumour cells (LS174T, HepG2, Calu-3) (human) (UniProt Q13443); assay: flow cytometry on HepG2 cells, 0.003815 nM
[34] = target: ADAM9 on human tumour cells (LS174T, HepG2, Calu-3) (human) (UniProt Q13443); assay: flow cytometry on HepG2 cells, 0.244141 nM
[35] = target: ADAM9 on human tumour cells (LS174T, HepG2, Calu-3) (human) (UniProt Q13443); assay: flow cytometry on HepG2 cells, 15.625 nM
[36] = target: ADAM9 on human tumour cells (LS174T, HepG2, Calu-3) (human) (UniProt Q13443); assay: flow cytometry on LS174T cells, 62.5 nM
[37] = target: ADAM9 on human tumour cells (LS174T, HepG2, Calu-3) (human) (UniProt Q13443); assay: flow cytometry on LS174T cells, 0.061035 nM
[38] = target: ADAM9 on human tumour cells (LS174T, HepG2, Calu-3) (human) (UniProt Q13443); assay: flow cytometry on LS174T cells, 0.015259 nM
[39] = target: ADAM9 on human tumour cells (LS174T, HepG2, Calu-3) (human) (UniProt Q13443); assay: flow cytometry on LS174T cells, 0.000954 nM
[40] = target: ADAM9 on human tumour cells (LS174T, HepG2, Calu-3) (human) (UniProt Q13443); assay: flow cytometry on LS174T cells, 3.906250 nM
[41] = target: ADAM9 on human tumour cells (LS174T, HepG2, Calu-3) (human) (UniProt Q13443); assay: flow cytometry on LS174T cells, 1000 nM
[42] = target: ADAM9 on human tumour cells (LS174T, HepG2, Calu-3) (human) (UniProt Q13443); assay: flow cytometry on LS174T cells, 0.976563 nM
[43] = target: ADAM9 on human tumour cells (LS174T, HepG2, Calu-3) (human) (UniProt Q13443); assay: flow cytometry on LS174T cells, 0.003815 nM
[44] = target: ADAM9 on human tumour cells (LS174T, HepG2, Calu-3) (human) (UniProt Q13443); assay: flow cytometry on LS174T cells, 15.625 nM
[45] = target: ADAM9 on human tumour cells (LS174T, HepG2, Calu-3) (human) (UniProt Q13443); assay: flow cytometry on LS174T cells, 250 nM
[46] = target: ADAM9 on human tumour cells (LS174T, HepG2, Calu-3) (human) (UniProt Q13443); assay: flow cytometry on LS174T cells, 0.244141 nM

Chain of ADAM9 on human tumour cells (LS174T, HepG2, Calu-3) (human) (Q13443 29-819): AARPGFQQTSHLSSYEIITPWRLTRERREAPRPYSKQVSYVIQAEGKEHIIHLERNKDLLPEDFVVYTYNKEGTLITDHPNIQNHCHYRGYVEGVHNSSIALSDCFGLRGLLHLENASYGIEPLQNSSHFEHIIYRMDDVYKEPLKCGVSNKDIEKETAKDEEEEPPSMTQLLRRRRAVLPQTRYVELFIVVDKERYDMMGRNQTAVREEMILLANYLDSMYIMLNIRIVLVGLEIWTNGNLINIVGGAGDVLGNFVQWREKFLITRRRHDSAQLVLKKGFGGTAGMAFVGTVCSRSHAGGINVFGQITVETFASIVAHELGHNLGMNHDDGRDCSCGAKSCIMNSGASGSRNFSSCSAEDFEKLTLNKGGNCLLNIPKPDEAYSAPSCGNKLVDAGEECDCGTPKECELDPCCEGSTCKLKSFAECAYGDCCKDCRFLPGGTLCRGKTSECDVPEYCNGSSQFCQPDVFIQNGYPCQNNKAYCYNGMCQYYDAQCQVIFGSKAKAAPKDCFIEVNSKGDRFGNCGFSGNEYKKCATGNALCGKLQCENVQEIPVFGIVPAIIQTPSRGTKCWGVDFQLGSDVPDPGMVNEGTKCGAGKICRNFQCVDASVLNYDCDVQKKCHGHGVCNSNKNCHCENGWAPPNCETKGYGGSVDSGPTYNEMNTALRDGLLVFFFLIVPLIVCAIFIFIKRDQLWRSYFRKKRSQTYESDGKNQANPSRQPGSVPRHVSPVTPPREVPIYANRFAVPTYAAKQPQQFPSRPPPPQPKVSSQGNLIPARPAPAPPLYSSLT

Molecule: anti-HIV human IgG antibody (iso-IgG1, produced by WuXi AppTec)
Mean fluorescence intensity (MFI) [1]: 389 MFI
Mean fluorescence intensity [2]: 368 MFI
Mean fluorescence intensity (MFI) [3]: 386 MFI
Mean fluorescence intensity (MFI) [4]: 377 MFI
Mean fluorescence intensity (MFI) [5]: 361 MFI
Mean fluorescence intensity [6]: 229 MFI
Mean fluorescence intensity (MFI) [7]: 690 MFI
Mean fluorescence intensity [8]: 220 MFI
Mean fluorescence intensity (MFI) [9]: 364 MFI
Mean fluorescence intensity [10]: 208 MFI
Mean fluorescence intensity [11]: 203 MFI
Mean fluorescence intensity (MFI) [12]: 361 MFI
Mean fluorescence intensity [13]: 254 MFI
Mean fluorescence intensity (MFI) [14]: 363 MFI
Mean fluorescence intensity [15]: 213 MFI
Mean fluorescence intensity (MFI) [16]: 349 MFI
Mean fluorescence intensity (MFI) [17]: 365 MFI
Mean fluorescence intensity [18]: 212 MFI
Mean fluorescence intensity [19]: 209 MFI
Mean fluorescence intensity (MFI) [20]: 371 MFI
Mean fluorescence intensity [21]: 202 MFI
Mean fluorescence intensity [22]: 269 MFI
Mean fluorescence intensity (MFI) [23]: 360 MFI

Mean fluorescence intensity (MFI) [24]: 1780 MFI
Mean fluorescence intensity (MFI) [25]: 451 MFI
Mean fluorescence intensity (MFI) [26]: 370 MFI
Mean fluorescence intensity (MFI) [27]: 376 MFI
Mean fluorescence intensity (MFI) [28]: 1790 MFI
Mean fluorescence intensity (MFI) [29]: 623 MFI
Mean fluorescence intensity (MFI) [30]: 3290 MFI
Mean fluorescence intensity (MFI) [31]: 17400 MFI
Mean fluorescence intensity (MFI) [32]: 16600 MFI
Mean fluorescence intensity (MFI) [33]: 396 MFI
Mean fluorescence intensity (MFI) [34]: 1090 MFI
Mean fluorescence intensity (MFI) [35]: 2960 MFI
B1: Ab16-X1 (antibody, human IgG1, kappa, V domains shown)
VH: QVQLQQPGTEVVKPGASVKLSCKASGFTFPLYWMHWVRQRPGRGLEWIGRIIPIFGHTKYNEKFKNKATLTADESSSTAYMELRSLTSDDSAVYYCARGGYYYYPREGFLDYWGQGTSVTVSS
VL: DIVMTQSPASLSVSPGERASISCRSSQSVDYSGDSYMNWYQQKPGQSPRLLIYAASDRESGVPDRFSGSGSGTDFTLKISRVEEEDAGTYYCQQSREDPFTFGQGTKVDIKR
modifications: linker-payload X1 (camptothecin derivative) conjugated after TCEP reduction; DAR p = 7.8 for the whole antibody; positions not given

Mean fluorescence intensity [36]: 2160 MFI
Mean fluorescence intensity [37]: 447 MFI
Mean fluorescence intensity [38]: 268 MFI
Mean fluorescence intensity [39]: 223 MFI
Mean fluorescence intensity [40]: 2380 MFI
Mean fluorescence intensity [41]: 1130 MFI
Mean fluorescence intensity [42]: 1960 MFI
Mean fluorescence intensity [43]: 219 MFI
Mean fluorescence intensity [44]: 2400 MFI
Mean fluorescence intensity [45]: 2130 MFI
Mean fluorescence intensity [46]: 954 MFI
B2: Ab16-X2 (antibody, human IgG1, kappa, V domains shown)
VH: QVQLQQPGTEVVKPGASVKLSCKASGFTFPLYWMHWVRQRPGRGLEWIGRIIPIFGHTKYNEKFKNKATLTADESSSTAYMELRSLTSDDSAVYYCARGGYYYYPREGFLDYWGQGTSVTVSS
VL: DIVMTQSPASLSVSPGERASISCRSSQSVDYSGDSYMNWYQQKPGQSPRLLIYAASDRESGVPDRFSGSGSGTDFTLKISRVEEEDAGTYYCQQSREDPFTFGQGTKVDIKR
modifications: linker-payload X2 (camptothecin derivative) conjugated after TCEP reduction; DAR p = 7.9 for the whole antibody; positions not given
